# PMC10866945 (2024)
# B1: Asialoglycoprotein receptor 1 (protein)
# chain: MTKEYQDLQHLDNEESDHHQLRKGPPPPQPLLQRLCSGPRLLLLSLGLSLLLLVVVCVIGSQNSQLQEELRGLRETFSNFTASTEAQVKGLSTQGGNVGRKMKSLESQLEKQQKDLSEDHSSLLLHVKQFVSDLRSLSCQMAALQGNGSERTCCPVNWVEHERSCYWFSRSGKAWADADNYCRLEDAHLVVVTSWEEQKFVQHHIGPVNTWMGLHDQNGPWKWVDGTDYETGFKNWRPEQPDDWYGHGLGGGEDCAHFTDDGRWNDDVCQRPYRWVCETELDKASQEPPLL
# Experiments:
# Spike protein RBD = Spike protein RBD (Severe acute respiratory syndrome …, UniProt P0DTC2); experiment: ELISA
# Spike protein NTD = Spike protein NTD (Severe acute respiratory syndrome …, UniProt P0DTC2); experiment: ELISA
binder,measurement,setting,value
B1,Kd,Spike protein RBD,269 nM
same,Kd,Spike protein NTD,179 nM
